Two molecules from patent US20170072041A1 (OHIO STATE INNOVATION FOUNDATION, published 2017) can be followed below.

Experiment [1] has as its target mouse DNase X on wild-type bone marrow-derived macrophages (BMDMs) (mouse) (UniProt Q9D7J6). In words: cell-based or functional assay.
For experiment [2], the target named is T1, mouse DNase X on wild-type bone marrow-derived macrophages (BMDMs) (mouse, UniProt Q9D7J6 38-314).
T1 construct: whole, on cells
T1 sequence: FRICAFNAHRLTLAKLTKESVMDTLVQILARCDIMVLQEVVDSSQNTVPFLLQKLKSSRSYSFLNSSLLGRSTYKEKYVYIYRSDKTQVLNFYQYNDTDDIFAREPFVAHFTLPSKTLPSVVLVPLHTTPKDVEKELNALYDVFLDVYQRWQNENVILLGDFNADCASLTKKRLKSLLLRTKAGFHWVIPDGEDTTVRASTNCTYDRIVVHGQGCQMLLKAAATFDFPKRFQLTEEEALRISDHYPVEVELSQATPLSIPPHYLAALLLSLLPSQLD
In words: bead binding to BMDMs of wild-type and DNase X-/- mice, 30 min at 4 C.

The target in experiment [3] is T2, native human DNase X (deoxyribonuclease 1-like 1) from THP-1 cell lysate (human, UniProt P49184 19-302, limits assumed).
T2 construct: GPI-anchored cell surface protein; also called DNase 1L1; DN1L1
T2 sequence (looked up): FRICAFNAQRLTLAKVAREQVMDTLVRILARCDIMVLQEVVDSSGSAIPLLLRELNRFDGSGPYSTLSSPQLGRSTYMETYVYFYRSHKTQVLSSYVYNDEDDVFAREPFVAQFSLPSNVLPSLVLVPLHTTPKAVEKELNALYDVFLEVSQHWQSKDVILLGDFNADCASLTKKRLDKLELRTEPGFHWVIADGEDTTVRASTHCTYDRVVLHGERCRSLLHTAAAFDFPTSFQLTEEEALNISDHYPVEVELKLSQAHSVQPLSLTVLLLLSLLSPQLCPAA
In words: far-Western blot, THP-1 cell lysate, anti-DNase X.

Experiment [4] has as its target T3, human DNase X on the cell surface (HEK293 cells, human primary macrophages derived from peripheral blood … (human, UniProt P49184 19-302)).
T3 construct: whole, on cells; Endogenous protein on non-permeabilised cells; also called cell surface-exposed DNase X; surface DNase X
T3 sequence: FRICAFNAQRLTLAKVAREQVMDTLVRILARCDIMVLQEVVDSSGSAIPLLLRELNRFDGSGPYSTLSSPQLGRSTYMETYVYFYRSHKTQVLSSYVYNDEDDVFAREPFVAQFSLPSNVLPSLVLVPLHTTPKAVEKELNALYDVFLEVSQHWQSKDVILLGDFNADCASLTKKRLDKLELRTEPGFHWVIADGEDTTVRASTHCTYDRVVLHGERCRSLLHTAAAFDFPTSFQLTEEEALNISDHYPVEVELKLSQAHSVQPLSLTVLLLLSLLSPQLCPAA
Nature of the experiment: immunofluorescence of non-permeabilised HEK293 cells incubated with coated beads.

On to “native full-length EtpE (ECH1038, entry triggering protein of Ehrlichia) of E. chaffeensis Arkansas (ligand)”, for which the decrease in E. chaffeensis binding and entry into BMDMs at 4 h pi, DNase X-/- against wild type in experiment [1] came to 60%.

B1: rEtpE-C (recombinant C-terminal region of EtpE/ECH1038, residues 1656-1963, C-terminal histidine-tagged fusion protein) (ligand)
chain: ELLSLVGGHRNASSNNANNGRSLSQGIRYKITFKISFAQNYFPVDEIIKLQQDANNMEYGVHGVHRTDIIALWSYISYASSKSKWLFKRYQSFAGLLFEIGAWGKCTSAERVFFTSMNRYSEKLPLKVYNFIRKITTGDFARKFSGMQSLYTYKQRVYDYVMHCVLRGGLGGECSDMTLREISNELHKLKQEIYSNYDVFRDLGITNGQQEVLLLINVMMLNYAMSDLLVSTTQVNSMLADVRSSLSRTAHCLPYGTVSQLQRSVSHMKYGEYSNYRASVVALWACISCLASFNDDMEPLIKLMLEGD
notes: Used renatured on membrane or Ni matrix, or coated on 0.5 um latex beads; also called rEtpE-C-coated beads; not shown: C-terminal histidine tag from pET33b(+)
As for B1, the binding result in experiment [2], in experiment [3] and in experiment [4] was “binds” throughout.
